The record followed here is paper PMC12786357.

As a reminder, the stoichiometry N is the number of molecules, sites or subunits per partner or assembly.

The labels stand for the following.
B1: Gpi17: N228Q (protein)
parent chain: MSNANLRKWVGFCFVAIYLFLGVPLWYKLTTVYRASLPINYIESLQNNKFQDIHLVIPVYVKSDTYRFPDVHDAIQVQVNHLLNSQEQRVPWSLQVLPYNETIEQMESEGNQFHVVTLKLDEFIGYSSAYDTKETLVYYDDAAVLSNDLPFFVAQTLVEHTFQLEWTHLNKTCEGVSTNNDVAISYDPNIHLSVTLLSGDGNPVAWEIEPTLTDYFSPFRKFLSPLVNFTVDSSIVYHNDLNLHSLNGSCTSVTWFDLSHTIDLSELSSMAYYPEDSALNLAIVFPSASSSPDGLAFINGTRISDEITTLDWNSYLVPQWGVIIINKMPLKPNSVISEDYLEPMMYRFATDIFQLLGLTEGSQDLLSPYITIDSFKRLTILQNLDKATETLWSLVKLTQQFQGMSIPREVSDNVIEALDLRLQIIDLLNDPGKGGDIVWNNALHLSNELVKLCEKAFFNGEMVQQNFFPQEHMIAVYLPLLGPISAVMFFGFYNVMKEKNQKSKKNGTEREVAKEKLELKEAQKLHAIDGEDEL
B2: Gpi17: N299Q (protein)
parent chain: B1 parent chain
B3: Gpi16: N29Q (protein)
parent chain: MILTLAYFMLGTLLLGVFAEDTVSQIGINDSLWYPYDEALVLKPLPNNDLLLSFAFQLQSEPFDPAVSSMSYDAYEHYTTFPRAIPPLLESTATRQFHLRFTRGFWDALSWGQLPHAGKEAGASGVELWSQVQAMDQEQAFHNWKKLSNSLSGLFCSSLNFIDESRTTFPRRSYASDIGAPLFNSTEKLYLMRASLPNEPICTENLTPFIKLLPTRGKSGLTSLLDGHKLFDSLWNSISLDIATICSEDEDALCHYEMDARIEMVTHVPSALARGERPIPKPLDGNTLRCDTDKPFDSYQCFPLPEPSQTHFKLSQLFARPINNGNLFANRPTRICAEVDRSTWTAFLSVDDTIFSTHDNCFDLSNDQNEGGSGYDFILESTDTTKVTPIVPVPIHVSRSLTGNGQDRGGMRIVFHNDNDTPVKLIYFESLPWFMRVYLSSLQITSTTSPQLQENDIILDKYYLQAADRKRPGHLEFTMLIPANTDIVMTYQFDKALLQFAEYPPDANHGFEIDAAVITVLSLESSSSLYEMRTSTLLLSLSTPDFSMPYNVIILTSTIMGLIFGMLYNLMVKRMVTVEEADKITLQSGLKYKLLKLKEKFLGKKKTKTD
B4: Gpi16: N184Q (protein)
parent chain: B3 parent chain

One series deals with S. cerevisiae GPI transamidase (GPIT) complex (S. cerevisiae). Description: cryo-EM structure; dimeric GPIT peak of the SEC, about 5 mg/mL, in GDN; overall resolution 4.4 Å; two copies of the monomer model docked as rigid bodies.
Conditions: not given
“S. cerevisiae GPI transamidase (GPIT) complex”: the stoichiometry N is 2.

Biological target in a further series: not listed separately
Description: FACS, surface GFP-V5-CWP2 in yeast chromosomal mutants. As to conditions: glycan lost; control: wild type. For orientation: A flow cytometer gives signals particle by particle.
On to B1, for which the enzymatic_activity result is given as “decreases”.
As for B2, the enzymatic_activity result is given as “decreases”.
Consider B3, for which the enzymatic_activity result is on record as “no change”.
For B4, the enzymatic_activity entry is recorded as “no change”.

Biological target in the next series: not listed separately
Description: anti-FLAG western blot, HEK293F. As to conditions: glycan lost; control: wild type.
As to B1, the expression_or_secretion entry was “no change”.
Consider B2, for which the expression_or_secretion entry is recorded as “no change”.
Still for that read-out and setting: next, B3: “no change”; B4: “no change”.
